T1: IL-TIF (Homo sapiens, UniProt Q9GZX6)
T1 sequence (Q9GZX6 34-179): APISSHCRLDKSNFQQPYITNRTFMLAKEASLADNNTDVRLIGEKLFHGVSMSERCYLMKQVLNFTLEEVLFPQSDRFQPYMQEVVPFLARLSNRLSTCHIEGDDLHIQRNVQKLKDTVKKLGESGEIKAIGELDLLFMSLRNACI

B1: IL-TIF-CEE: human IL-TIF polypeptide (SEQ ID NO:15) containing C-terminal GluGlu (EE) tag, purified from BHK cells; ligand of zcytor16 (protein, listed as Homo sapiens)
chain: MAALQKSVSSFLMGTLATSCLLLLALLVQGGAAAPISSHCRLDKSNFQQPYITNRTFMLAKEASLADNNTDVRLIGEKLFHGVSMSERCYLMKQVLNFTLEEVLFPQSDRFQPYMQEVVPFLARLSNRLSTCHIEGDDLHIQRNVQKLKDTVKKLGESGEIKAIGELDLLFMSLRNACI
modifications: C-terminal GluGlu tag
notes: ligand of zcytor16
B2: zcytor16-Fc4: soluble zcytor16 polypeptide (residue 22 to 231 of SEQ ID NO:2; SEQ ID NO:13) fused to a C-terminal Fc4 tag (protein)
chain: TQSTHESLKPQRVQFQSRNFHNILQWQPGRALTGNSSVYFVQYKIYGQRQWKNKEDCWGTQELSCDLTSETSDIQEPYYGRVRAASAGSYSEWSMTPRFTPWWETKIDPPVMNITQVNGSLLVILHAPNLPYRYQKEKNVSIEDYYELLYRVFIINNSLEKEQKVYEGAHRAVEIEALTPHSSYCVVAEIYQPMLDRRSQRSEERCVEIPEPRSSDKTHTCPPCPAPEAEGAPSVFLFPPKPKDTLMISRTPEVTCVVVDVSHEDPEVKFNWYVDGVEVHNAKTKPREEQYNSTYRVVSVLTVLHQDWLNGKEYKCKVSNKALPSSIEKTISKAKGQPREPQVYTLPPSRDELTKNQVSLTCLVKGFYPSDIAVEWESNGQPENNYKTTPPVLDSDGSFFLYSKLTVDKSRWQQGNVFSCSVMHEALHNHYTQKSLSLSPGK

Columns and labels:
[1] = system: BaF3/CRF2-4/zcytor11 cells; assay: Alamar Blue proliferation assay, BaF3/CRF2-4/zcytor11 cells; assay type: cell-based, murine; details: 3 days, then Alamar Blue
Method: BaF3, an interleukin-3 (IL-3) dependent pre-lymphoid cell line derived from murine bone marrow (Palacios and Steinmetz, Cell 41: 727-734, 1985; Mathey-Prevot et al., Mol. Cell. Biol. 6: 4133-4135, 1986), was maintained in complete media (RPMI medium (JRH Bioscience Inc., Lenexa, Kans.) supplemented with 10% heat-inactivated fetal calf serum, 2 ng/ml murine IL-3 (mIL-3) (R & D, Minneapolis, Minn.), 2 mM L-glutaMax-1™ (Gibco BRL), 1 mM Sodium Pyruvate (Gibco BRL), and PSN antibiotics (GIBCO BRL)). Prior to electroporation, CRF2-4/pZP7P was prepared and purified using a Qiagen Maxi Prep kit (Qiagen) as per manufacturer's instructions. […]
BaF3/CRF2-4/zcytor11 cells were spun down and washed in the complete media, described in Example 7A above, but without mIL-3 (hereinafter referred to as “mIL-3 free media”). […] Cells were then counted in a hemacytometer. […]
Proliferation of the BaF3/CRF2-4/zcytor11 cells was assessed using IL-TIF-CEE protein diluted with mIL-3 free media to 50, 10, 2, 1, 0.5, 0.25, 0.13, 0.06 ng/ml concentrations. […] Alamar Blue gives a fluourometric readout based on number of live cells, and is thus a direct measurement of cell proliferation in comparison to a negative control. […] Plates were read on the Finax™ plate reader (Molecular Devices Sunnyvale, Calif.) using the SoftMax™ Pro program, at wavelengths 544 (Excitation) and 590 (Emmission). […]

IL-TIF [2] = target: T1, IL-TIF; assay: Inhibition of IL-TIF activation of luciferase reporter in MES 13 cells by zcytor16-Fc4; assay type: cell-based; details: even at the highest dose of IL-TIF used
Method: MES 13 cells (ATCC No. CRL-1927) were plated at 10,000 cells/well in 96-well tissue culture clusters (Costar) in DMEM growth medium (Life Technologies) supplemented with pyruvate and 10% serum (HyClone). Next day, the medium was switched to serum free DMEM medium by substituting 0.1% BSA (Fraction V; Sigma) for serum. This medium also contained the adenoviral construct KZ136 (below) that encodes a luciferase reporter mini-gene driven by SRE and STAT elements, at a 1000:1 multiplicity of infection (m.o.i.), i.e. 1000 adenoviral particles per cell. After allowing 24 h for the incorporation of the adenoviral construct in the cells, the media were changed and replaced with serum-free media. Human recombinant IL-TIF with or without a recombinant zcytor16-Fc4 fusion was added at the indicated final concentration in the well (as described in Table 11, below). Dilutions of both the IL-TIF and zcytor16-Fc4 were performed in serum-free medium. 0.1% BSA was added for a basal assay control. 4 h later, cells were lysed and luciferase activity, denoting activation of the reporter gene, was determined in the lysate using an Luciferase Assay System assay kit (Promega) and a Labsystems Luminoskan luminometer (Labsystems, Helsinki, Finland). Activity was expressed as luciferase units (LU) in the lysate.
The construction of the adenoviral KZ136 vector was as follows. […]

IL-TIF [3] = target: T1, IL-TIF; assay: Antagonism of IL-TIF-induced proliferation of BaF3/CRF2-4/zcytor11 cells (Alamar Blue); assay type: cell-based; parameters: made in house; host or cells: BHK 570 cells, pHZ200-CEE vector, purified from conditioned media; details: zcytor16 at 10 μg/ml; IL-TIF at all concentrations (0.06-50 ng/ml)
Source text: Purified IL-TIF-CEE (Example 19) was used to test for the presence of proliferation activity as described below. Purified zcytor16-Fc4 (Example 11) was used to antagonize the proliferative response of the IL-TIF in this assay as described below.
BaF3/CRF2-4/zcytor11 cells were spun down and washed in the complete media, described in Example 7A above, but without mIL-3 (hereinafter referred to as “mIL-3 free media”). The cells were spun and washed 3 times to ensure the removal of the mIL-3. Cells were then counted in a hemacytometer. Cells were plated in a 96-well format at 5000 cells per well in a volume of 100 μl per well using the mIL-3 free media.
Proliferation of the BaF3/CRF2-4/zcytor11 cells was assessed using IL-TIF-CEE protein diluted with mIL-3 free media to 50, 10, 2, 1, 0.5, 0.25, 0.13, 0.06 ng/ml concentrations. 100 μl of the diluted protein was added to the BaF3/CRF2-4/zcytor11 cells. […] Alamar Blue gives a fluourometric readout based on number of live cells, and is thus a direct measurement of cell proliferation in comparison to a negative control. […] Plates were read on the Finax™ plate reader (Molecular Devices Sunnyvale, Calif.) using the SoftMax™ Pro program, at wavelengths 544 (Excitation) and 590 (Emmission). […] The response, as measured, was approximately 15-fold over background at the high end of 50 ng/ml down to a 2-fold induction at the low end of 0.06 ng/ml. […]

IL-TIF [4] = target: T1, IL-TIF; assay: COS cell secretion trap binding assay; parameters: expressed in transfected cells; host or cells: COS cells, pZP7 expression vector; details: 1-3 μg/ml zcytor16sR-Fc4, COS cells transfected with human IL-TIF cDNA
Method: COS cell transfections were performed as follows: A mixture of 0.5 μg DNA and 5 μl lipofectamine (Gibco BRL) in 92 ul serum free DMEM media (55 mg sodium pyruvate, 146 mg L-glutamine, 5 mg transferrin, 2.5 mg insulin, 1 μg selenium and 5 mg fetuin in 500 ml DMEM) was incubated at room temperature for 30 minutes and then 400 μl serum free DMEM media added. A 500 μl mixture was added onto COS cells plated on 12-well tissue culture plate at 1.5×10^5 COS cells/well and previously incubated for 5 hours at 37° C. An additional 500 μl 20% FBS DMEM media (100 ml FBS, 55 mg sodium pyruvate and 146 mg L-glutamine in 500 ml DMEM) was added and the plates were incubated overnight.
The secretion trap was performed as follows: Media was rinsed off cells with PBS and fixed for 15 minutes with 1.8% Formaldehyde in PBS. Cells were then washed with TNT (0.1M Tris-HCl, 0.15M NaCl, and 0.05% Tween-20 in H2O). Cells were permeated with 0.1% Triton-X in PBS for 15 minutes and washed again with TNT. […]

Molecule | proliferative response (induction) ([1]; IL-TIF-CEE 0.06 ng/ml) | proliferative response over background ([1]; IL-TIF-CEE 50 ng/ml) | antagonism of the response of MES 13 cells to IL-TIF (IL-TIF [2]) | proliferative response to IL-TIF in the presence of zcytor16 (IL-TIF [3]) | binding of zcytor16sR/Fc4 to COS cells transfected with human IL-TIF (IL-TIF [4])
B1 | 2 fold induction | approximately 15 fold over background |  |  | 
B2 |  |  | effectively blocks the response to IL-TIF | brought down to background | positive binding

Reference: patent US8034784B2, “Method of suppressing or reducing IL-TIF-induced inflammation, or treating associated conditions thereof, using Zcytor16” (ZymoGenetics, Inc., priority 1999, dated 2011)
